Measured values taken from US20170313781A1 (IMMUNOMEDICS, published 2017).
Like-named read-outs stand apart in the source and are kept apart here.

T1: human Trop-2 on the surface of human tumor cells (human, UniProt P09758 27-323)
T1 construct: whole, on cells; also called EGP-1; TACSTD2
T1 sequence (looked up): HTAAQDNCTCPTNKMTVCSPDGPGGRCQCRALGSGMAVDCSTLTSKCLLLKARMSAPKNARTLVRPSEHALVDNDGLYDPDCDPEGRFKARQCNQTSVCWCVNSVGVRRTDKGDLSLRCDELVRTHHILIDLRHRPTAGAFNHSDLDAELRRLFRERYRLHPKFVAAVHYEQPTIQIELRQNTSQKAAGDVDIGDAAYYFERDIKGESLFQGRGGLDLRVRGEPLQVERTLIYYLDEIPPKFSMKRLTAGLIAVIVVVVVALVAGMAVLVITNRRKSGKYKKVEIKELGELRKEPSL


Tests used:
[1] = biological target: human Trop-2 on the surface of human tumor cells (human) (UniProt P09758); experiment: cell binding assay
[2] = biological target: human Trop-2 on the surface of human tumor cells (human) (UniProt P09758); experiment: cell-based or functional assay
[3] = biological target: recombinant human neonatal receptor (FcRn) (human) (UniProt P55899); experiment: SPR (BIACORE), FcRn chip
[4] = biological target: rhTrop-2/TACSTD2 (Sino Biological, Inc.) immobilized on a CM5 sensor chip (human) (UniProt P09758); experiment: SPR (BIACORE), Trop-2 chip
[5] = biological target: recombinant human neonatal receptor (FcRn) (human) (UniProt P55899); experiment: SPR (BIACORE), low-density FcRn chip, three runs, 400 to 25 nM
[6] = biological target: rhTrop-2/TACSTD2 (Sino Biological, Inc.) immobilized on a CM5 sensor chip (human) (UniProt P09758); experiment: SPR (BIACORE), low-density recombinant human Trop-2 chip, three runs
[7] = biological target: human Trop-2 on the surface of human tumor cells (human) (UniProt P09758); experiment: cell binding on NCI-N87 cells, Bmax compared to RS7
[8] = biological target: human Trop-2 on the surface of human tumor cells (human) (UniProt P09758); experiment: cell binding on NCI-N87 cells, anti-mouse-HRP, luminescence
[9] = biological target: T1, human Trop-2 on the surface of human …; experiment: as above
[10] = biological target: human Trop-2 on the surface of human tumor cells (human) (UniProt P09758); experiment: cell-based or functional assay; remark: listed apart in the source
[11] = biological target: recombinant human Trop-2 with a His-tag (Sino Biological, Cat#10428-H09H) (human) (UniProt P09758); experiment: ELISA on Ni-NTA strips coated with recombinant His-tagged human Trop-2

Kd [1] [nM]	Kd [5] [nM]	Kd [6] [nM]	reduction of Bmax against RS7 [7] [%]	Kd [8] [nM]	maximum binding (Bmax) (relative luminescent units) [8]	Molecule	also measured
1.2	192	0.26	–	–	–	sacituzumab govitecan (IMMU-132, hRS7-CL2A-SN-38) (antibody)	ADCC, percent specific lysis of MDA-MB-468 cells (LDH release, E:T 50:1, 33.3 nM) [2]: 8.6%; median fluorescence intensity of anti-rH2AX-AF488 staining (dsDNA breaks), HCC1806 (Trop-2+) cells [2]: 546 MFI; γH2AX induction in BxPC-3 cells, Mean Fluorescence Intensity [2]: 5350 MFI; γH2AX induction in BxPC-3 cells, Percent Positive [2]: 69%; fold decrease in fold change of average binding level (reference not named; the comparison in paragraph 543 is with hRS7) [3]: 2 fold; fold improvement of KD against naked hRS7 [4]: 2 fold
–	–	–	25	0.52	8470	162-46.2 murine monoclonal antibody against human Trop-2	–
–	–	–	50	0.49	6020	MAB650 murine monoclonal antibody against human Trop-2 (R&D Systems)	–
–	–	–	–	–	–	murine RS7 anti-Trop-2 monoclonal antibody (antibody, V domains shown) VH: VKLQESGPELKKPGETVKISCKASGYTFTNYGMNWVKQAPGKGLKWMGWINTYTGEPTYTDDFKGRFAFSLETSATTAYLQINNLKSEDMATYFCARGGFGSSYWYFDVWGQGTTVTVSS VL: DIQLTQSHKFMSTSVGDRVSITCKASQDVSIAVAWYQQKPGQSPKLLIYSASYRYTGVPDRFTGSGSGTDFTFTISSVQAEDLAVYYCQQHYITPLTFGAGTKLELK	Kd [9]: 0.57 nM
–	92.4	0.51	–	–	–	humanized RS7 (hRS7) anti-Trop-2 IgG (antibody, INN chains, looked up, V domains shown) VH: QVQLQQSGSELKKPGASVKVSCKASGYTFTNYGMNWVKQAPGQGLKWMGWINTYTGEPTYTDDFKGRFAFSLDTSVSTAYLQISSLKADDTAVYFCARGGFGSSYWYFDVWGQGSLVTVSS VL: DIQLTQSPSSLSASVGDRVSITCKASQDVSIAVAWYQQKPGKAPKLLIYSASYRYTGVPDRFSGSGSGTDFTLTISSLQPEDFAVYYCQQHYITPLTFGAGTKVEIK	ADCC, percent specific lysis of BxPC-3 cells (PBMC effectors, E:T 100:1, 33.3 nM) [10]: 8.5%; ADCC, percent specific lysis of MDA-MB-468 cells (LDH release, E:T 50:1, 33.3 nM) [10]: 29.8%; Kd [11]: 0.3 nM
1.2	–	–	–	–	–	hRS7-CL2-SN-38 (antibody, INN chains, looked up, V domains shown, SN-38 via CL2 linker) VH: QVQLQQSGSELKKPGASVKVSCKASGYTFTNYGMNWVKQAPGQGLKWMGWINTYTGEPTYTDDFKGRFAFSLDTSVSTAYLQISSLKADDTAVYFCARGGFGSSYWYFDVWGQGSLVTVSS VL: DIQLTQSPSSLSASVGDRVSITCKASQDVSIAVAWYQQKPGKAPKLLIYSASYRYTGVPDRFSGSGSGTDFTLTISSLQPEDFAVYYCQQHYITPLTFGAGTKVEIK	–
